For assay [1], the target named is T1, Human HPTP-η with C-terminal His10 tag (Human HPTP-η ECD) (human, UniProt Q12913 36-975).
T1 construct: Produced in HEK293 cells; it was not cut off; also called Human PTPη; human PTP-η
T1 sequence: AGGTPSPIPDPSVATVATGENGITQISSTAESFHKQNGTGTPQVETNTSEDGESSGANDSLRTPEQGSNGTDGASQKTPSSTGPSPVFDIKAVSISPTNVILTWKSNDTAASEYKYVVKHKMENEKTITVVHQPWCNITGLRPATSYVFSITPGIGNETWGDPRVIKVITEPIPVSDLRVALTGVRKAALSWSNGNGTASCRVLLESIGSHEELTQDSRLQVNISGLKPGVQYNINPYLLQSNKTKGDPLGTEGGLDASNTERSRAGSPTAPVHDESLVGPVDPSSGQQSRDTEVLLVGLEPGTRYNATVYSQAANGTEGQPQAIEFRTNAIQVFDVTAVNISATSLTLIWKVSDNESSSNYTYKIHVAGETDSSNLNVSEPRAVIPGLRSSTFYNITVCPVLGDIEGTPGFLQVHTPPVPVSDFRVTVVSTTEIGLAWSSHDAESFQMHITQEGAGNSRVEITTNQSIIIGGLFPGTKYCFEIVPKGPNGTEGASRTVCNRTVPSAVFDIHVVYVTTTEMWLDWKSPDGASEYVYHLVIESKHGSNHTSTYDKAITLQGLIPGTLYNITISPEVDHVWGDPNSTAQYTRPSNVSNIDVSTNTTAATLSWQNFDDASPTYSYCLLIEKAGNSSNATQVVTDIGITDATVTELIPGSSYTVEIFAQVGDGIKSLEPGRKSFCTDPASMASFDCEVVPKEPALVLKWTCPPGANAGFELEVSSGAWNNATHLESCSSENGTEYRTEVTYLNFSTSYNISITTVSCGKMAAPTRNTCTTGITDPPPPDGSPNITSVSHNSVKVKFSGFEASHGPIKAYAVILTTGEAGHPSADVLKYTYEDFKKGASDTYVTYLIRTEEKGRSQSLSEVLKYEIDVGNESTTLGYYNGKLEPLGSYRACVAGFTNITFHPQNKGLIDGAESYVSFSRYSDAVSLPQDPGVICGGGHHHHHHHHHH
As to the kind of experiment: ELISA, coated antigen. Here is the method: (§1) HPTP-β, cyno PTP-β, and HPTP-η proteins were coated onto ELISA plates in coating buffer (pH 9.4). Each protein was prepared as a 1 μg/mL protein stock in 50 mM carbonate-bicarbonate. The coated proteins were aliquoted at a volume of 100 μL/well into sterile, clear, polystyrene, flat bottom 96-well plates. The plates were incubated overnight at 4° C. After overnight incubation, the plates were washed 3× with 200 μL/well of 1×PBS-T (PBS with 0.05% Tween 20). The immunizing protein was human VE-PTP (HPTP-β). The plates were then blocked with 200 μL/well of 5% blotting grade blocker non-fat dry milk in PBS-T and incubated for 1 hr at room temperature.
(§2) Primary antibody samples were prepared for the humanized variants and the negative control, anti-hCD20-hIgG4S228P, using 1 μg/well in 5% blotting grade blocker non-fat dry milk in PBS. Samples were tested in triplicates. The Fab antibody fragments were treated as the IgG antibodies. The plates were then washed 3× with PBS-T and 100 μL of primary antibody preparation was added in each well. The plates were then incubated for 1 hr at room temperature.
(§3) Then, […] Ultra TMB-ELISA was added in each well, and the plate was allowed to develop for 5 min at room temperature. After 5 min, 50 μL of 2 M sulfuric acid was added to each well to stop the reaction. The plates were then analyzed on a plate reader at an absorbance wavelength of 450 nm.
(In an ELISA, binding on a coated surface is turned into a signal by an enzyme label.)

Assay [2] deals with T2, Human VE-PTP (HPTP-β) containing first eight FN3 repeats with C-terminal His6 tag (Human ½ VE-PTP ECD) (human, UniProt P23467 23-820).
T2 construct: Produced in HEK293 cells and purified by the His tag; it was not cut off; also called Human Beta ½ ECD
T2 sequence: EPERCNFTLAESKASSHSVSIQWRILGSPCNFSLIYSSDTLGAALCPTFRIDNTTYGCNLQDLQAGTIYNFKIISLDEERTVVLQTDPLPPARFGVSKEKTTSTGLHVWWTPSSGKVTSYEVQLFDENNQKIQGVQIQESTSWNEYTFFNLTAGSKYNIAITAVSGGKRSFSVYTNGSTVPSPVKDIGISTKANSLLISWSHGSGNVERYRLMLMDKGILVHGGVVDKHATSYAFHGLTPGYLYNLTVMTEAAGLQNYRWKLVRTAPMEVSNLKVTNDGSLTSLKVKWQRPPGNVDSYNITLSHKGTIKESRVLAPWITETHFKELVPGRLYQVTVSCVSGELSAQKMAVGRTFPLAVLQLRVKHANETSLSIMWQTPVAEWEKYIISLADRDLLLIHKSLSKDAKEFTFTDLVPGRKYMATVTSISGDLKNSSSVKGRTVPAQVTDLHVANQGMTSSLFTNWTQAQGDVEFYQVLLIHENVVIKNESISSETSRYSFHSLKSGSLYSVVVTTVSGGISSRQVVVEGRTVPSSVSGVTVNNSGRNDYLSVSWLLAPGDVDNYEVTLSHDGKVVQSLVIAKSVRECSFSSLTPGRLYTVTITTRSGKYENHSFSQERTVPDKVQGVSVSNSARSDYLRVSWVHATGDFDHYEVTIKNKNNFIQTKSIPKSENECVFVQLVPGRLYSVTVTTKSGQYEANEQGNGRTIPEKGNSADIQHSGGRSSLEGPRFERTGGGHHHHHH
Put plainly: ELISA, antigen coated at 1 µg/mL, antibody 1 µg/well. The protocol: as §1, §2, §3

Changes are numbered by the printed parent chain. Numbers in names are those of the source.

B1: mouse/human chimeric antibody HC0LC0 (antibody, human IgG4 S228P, kappa, V domains shown)
VH: EVQLVETGGGLVQPKGSMKLSCAASGFTFNANAMNWIRQAPGKGLEWVARIRTKSNNYATYYAGSVKDRFTISRDDAQNMLYLQMNDLKTEDTAMYYCVRDYYGSSAWITYWGQGTLVTVSA
VL: DIVMTQSHKFMSTSVGDRVSITCKASQHVGTAVAWYQQKPDQSPKQLIYWASTRHTGVPDRFTGSGSGTDFTLTISNVQSEDLADYFCQQYSSYPFTFGSGTKLEIKR
notes: Murine variable domains of R15E6 on human IgG4 (S228P) and kappa constant domains, expressed in CHO cells; also called VH0-VL0
Take B1: in assay [1], the binding result is given as “no binding (tested: <=0.2; 1 µg/well)”. For the same molecule, in assay [2], the “ELISA value (absorbance at 450 nm)” value stood at 1.8.

B2: humanized R15E6 variant HC2LC1 (antibody, human IgG4 S228P, kappa, V domains shown)
VH: EVQLVESGGGLVQPGGSLRLSCAASGFTFNANAMNWVRQAPGKGLEWVGRIRTKSNNYATYYAGSVKDRFTISRDDSKNSLYLQMNSLKTEDTAVYYCVRDYYGSSAWITYWGQGTLVTVSS
VL: DVVMTQSPSFLSASVGDRVTITCKASQHVGTAVAWYQQRPGKAPKLLIYWASTRHTGVPSRFSGSGSGTEFTLTISSLQPEDFATYFCQQYSSYPFTFGGGTKLEIKR
notes: Human IgG4 (S228P) / kappa, expressed in CHO cells; Signal peptides left out by range; also called VH2-VL1
For the molecule B2, the binding result in assay [1] is given as “no binding (tested: <=0.2; 1 µg/well)”. Besides, the “ELISA value (absorbance at 450 nm)” value in assay [2] is 1.81.

B3: humanized R15E6 variant HC2LC2 (antibody, human IgG4 S228P, kappa, V domains shown)
VH: B2 VH
VL: DIVMTQSPDSLAVSLGERATINCKASQHVGTAVAWYQQKPGQPPKLLIYWASTRHTGVPDRFSGSGSGTDFTLTISSLQAEDVAVYYCQQYSSYPFTFGQGTKLEIKR
notes: Human IgG4 (S228P) / kappa, expressed in CHO cells; Signal peptides left out by range; also called VH2-VL2
With B3, the binding result in assay [1] is on record as “no binding (tested: <=0.2; 1 µg/well)”. Besides, the “ELISA value (absorbance at 450 nm)” value in assay [2] stood at 1.92.

B4: humanized R15E6 variant HC2LC4 (antibody, human IgG4 S228P, kappa, V domains shown)
VH: B2 VH
VL: B3 VL with G41E, Q100G, L104V
notes: Human IgG4 (S228P) / kappa, expressed in CHO cells; Signal peptides left out by range; also called VH2-VL4
Turning to B4, the binding result in assay [1] is given as “no binding (tested: <=0.2; 1 µg/well)”. Further, the “ELISA value (absorbance at 450 nm)” value in assay [2] was found to be 1.65.

B5: humanized R15E6 variant HC1LC4 (antibody, human IgG4 S228P, kappa, V domains shown)
VH: B2 VH with R19K, P41S, S80T, L81A, V95A
VL: B3 VL with G41E, Q100G, L104V
notes: Human IgG4 (S228P) / kappa, expressed in CHO cells; Signal peptides left out by range; also called VH1-VL4
Take B5: the binding result in assay [1] is on record as “no binding (tested: <=0.2; 1 µg/well)”. Also, in assay [2], the “ELISA value (absorbance at 450 nm)” value was 1.74.

B6: humanized R15E6 variant HC1LC2 (antibody, human IgG4 S228P, kappa, V domains shown)
VH: B2 VH with R19K, P41S, S80T, L81A, V95A
VL: B3 VL
notes: Human IgG4 (S228P) / kappa, expressed in CHO cells; Signal peptides left out by range; also called VH1-VL2
B6: the binding result in assay [1] is reported as “no binding (tested: <=0.2; 1 µg/well)”. Further, the “ELISA value (absorbance at 450 nm)” value in assay [2] was found to be 1.75.

B7: humanized R15E6 variant HC3LC4 (antibody, human IgG4 S228P, kappa, V domains shown)
VH: B2 VH with G16R, A23T, S80I, L81A
VL: B3 VL with G41E, Q100G, L104V
notes: Human IgG4 (S228P) / kappa, expressed in CHO cells; Signal peptides left out by range; also called VH3-VL4
For B7, the binding result in assay [1] is listed as “no binding (tested: <=0.2; 1 µg/well)”. In assay [2], the “ELISA value (absorbance at 450 nm)” value was determined as 2.

B8: humanized R15E6 variant HC2LC3 (antibody, human IgG4 S228P, kappa, V domains shown)
VH: B2 VH
VL: B2 VL with V2I, V3Q, S9F, F10S, R39K, E70D
notes: Human IgG4 (S228P) / kappa, expressed in CHO cells; Signal peptides left out by range; also called VH2-VL3
B8: the binding result in assay [1] is recorded as “no binding (tested: <=0.2; 1 µg/well)”. The “ELISA value (absorbance at 450 nm)” value in assay [2] was 1.55.

Values taken from patent US20190077863A1 (AERPIO PHARMACEUTICALS, published 2019).
